The target in the experiment is T1, IRAK4 (Homo sapiens, UniProt Q9NWZ3).
T1 sequence (Q9NWZ3 1-460): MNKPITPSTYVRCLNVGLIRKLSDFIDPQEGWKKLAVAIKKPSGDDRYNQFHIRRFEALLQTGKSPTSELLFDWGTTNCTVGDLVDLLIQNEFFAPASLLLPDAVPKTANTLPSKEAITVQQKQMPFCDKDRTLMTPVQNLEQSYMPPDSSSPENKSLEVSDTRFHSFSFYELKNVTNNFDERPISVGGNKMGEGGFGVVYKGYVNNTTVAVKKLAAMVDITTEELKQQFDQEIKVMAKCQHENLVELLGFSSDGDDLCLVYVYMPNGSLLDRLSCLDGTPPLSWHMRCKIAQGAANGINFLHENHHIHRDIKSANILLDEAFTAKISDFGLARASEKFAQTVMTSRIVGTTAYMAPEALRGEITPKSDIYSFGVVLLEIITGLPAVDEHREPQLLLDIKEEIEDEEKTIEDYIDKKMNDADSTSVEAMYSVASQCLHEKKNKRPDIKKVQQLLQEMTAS
The experiment in a line: mRNA display affinity selection against IRAK4, NGS abundance. The class given is binding. On the set-up: acids 1-460; NP_057207.2) was purchased from Carna Biosciences; purchased Carna Biosciences (Kobe, Japan). Particulars: Top100 selection hits, NGS.

Regarding CQRWKRRCYM, the Library fraction by setting is: (IRAK4 selection pulldown (+)) 0.0007; (IRAK4 selection pulldown (-)) 0.00053. Moreover, the Raw reads runs as follows: (IRAK4 selection pulldown (+)) 76; (IRAK4 selection pulldown (-)) 71.

In the case of GPILYNRRLFV, under “IRAK4 selection pulldown (+)”, the Library fraction is reported as 0.0002 and the Raw reads was found to be 21. Under “IRAK4 selection pulldown (-)”, this sequence had a Library fraction of 0.00014 and a Raw reads of 19.

For the sequence GMKRQFITWHWT, under “IRAK4 selection pulldown (-)”, the Library fraction turned out to be 7e-5 and the Raw reads turned out to be 10.

For the setting “IRAK4 selection pulldown (-)”, SMERQFITWHWT returned a Library fraction of 0.00013 and a Raw reads of 17.

In the case of SQRYKRRNYK, under “IRAK4 selection pulldown (+)”, the Library fraction was determined as 0.0009 and the Raw reads amounted to 92. For the same sequence, where the note is “IRAK4 selection pulldown (-)”, the Library fraction is reported as 0.00037 and the Raw reads stood at 49.

The sequence AQRWRRRCYH registered a Library fraction (IRAK4 selection pulldown (+)) of 0.0008 and a Library fraction (IRAK4 selection pulldown (-)) of 0.00051. Besides, the Raw reads amounted to 85 (IRAK4 selection pulldown (+)) and 68 (IRAK4 selection pulldown (-)).

Turning to SVCWKRRNCH, where the note is “IRAK4 selection pulldown (+)”, the Library fraction was 0.0002 and the Raw reads was found to be 24. Where the note is “IRAK4 selection pulldown (-)”, this sequence gave a Library fraction of 0.00016 and a Raw reads of 22.

Under “IRAK4 selection pulldown (+)”, SLLWKKRMYK showed a Library fraction of 0.0009 and a Raw reads of 95. Where the note is “IRAK4 selection pulldown (-)”, this sequence registered a Library fraction of 0.00027 and a Raw reads of 36.

Turning to AQRWRQKCYK, under “IRAK4 selection pulldown (+)”, the Library fraction is 0.0002 and the Raw reads is given as 19.

Consider TMLWKRRIYR, for which, under “IRAK4 selection pulldown (+)”, the Library fraction was found to be 0.044 and the Raw reads was 4661. Where the note is “IRAK4 selection pulldown (-)”, this sequence registered a Library fraction of 0.029 and a Raw reads of 3881.

In the case of SMKRQLITWHWT, under “IRAK4 selection pulldown (-)”, the Library fraction was 0.00037 and the Raw reads is listed as 50.

For RTYWKRRCYA, under “IRAK4 selection pulldown (+)”, the Library fraction came to 0.0076 and the Raw reads stood at 814. For the same sequence, where the note is “IRAK4 selection pulldown (-)”, the Library fraction is reported as 0.00332 and the Raw reads stood at 444.

As for TQYWKRRIYN, for the setting “IRAK4 selection pulldown (+)”, the Library fraction was found to be 0.007 and the Raw reads came out at 748. In addition, where the note is “IRAK4 selection pulldown (-)”, the Library fraction came to 0.00241 and the Raw reads is 322.

For the sequence SIVWKRRIYR, under “IRAK4 selection pulldown (+)”, the Library fraction turned out to be 0.005 and the Raw reads is listed as 541. Further, where the note is “IRAK4 selection pulldown (-)”, the Library fraction was determined as 0.00216 and the Raw reads is listed as 289.

For the sequence SLLWKRRCYN, where the note is “IRAK4 selection pulldown (+)”, the Library fraction came out at 0.0038 and the Raw reads stood at 409. Besides, under “IRAK4 selection pulldown (-)”, the Library fraction stood at 0.00172 and the Raw reads came to 230.

Where the note is “IRAK4 selection pulldown (+)”, ARLWRRRIYQ displayed a Library fraction of 0.0001 and a Raw reads of 11. For the setting “IRAK4 selection pulldown (-)”, this sequence showed a Library fraction of 0.00049 and a Raw reads of 66.

Where the note is “IRAK4 selection pulldown (+)”, SIYWKRRRYK came in with a Library fraction of 0.0001 and a Raw reads of 11.

For the setting “IRAK4 selection pulldown (+)”, STRWKRRNYT displayed a Library fraction of 0.0004 and a Raw reads of 39. Where the note is “IRAK4 selection pulldown (-)”, this sequence came in with a Library fraction of 0.00016 and a Raw reads of 22.

For the setting “IRAK4 selection pulldown (+)”, RTRWKCKMYH registered a Library fraction of 0.0002 and a Raw reads of 20.

Under “IRAK4 selection pulldown (+)”, SMLWRRRKYA gave a Library fraction of 0.0001 and a Raw reads of 16. For the same sequence, for the setting “IRAK4 selection pulldown (-)”, the Library fraction amounted to 7e-5 and the Raw reads stood at 10.

For the setting “IRAK4 selection pulldown (-)”, TMKRIVINWGWG registered a Library fraction of 0.0001 and a Raw reads of 14.

Where the note is “IRAK4 selection pulldown (+)”, TQRWKHRLYK returned a Library fraction of 0.0006 and a Raw reads of 68. For the same sequence, for the setting “IRAK4 selection pulldown (-)”, the Library fraction was 0.00032 and the Raw reads was 43.

For the sequence SMKRQFITWHWT, where the note is “IRAK4 selection pulldown (-)”, the Library fraction was determined as 0.376 and the Raw reads is on record as 50248.

Consider SLLWKRRIMK, for which, for the setting “IRAK4 selection pulldown (+)”, the Library fraction was found to be 0.180 and the Raw reads worked out at 19248. Under “IRAK4 selection pulldown (-)”, the Library fraction is reported as 0.066 and the Raw reads was 8762.

Take AIRWKNRNYK: the Library fraction runs as follows: (IRAK4 selection pulldown (+)) 0.0009; (IRAK4 selection pulldown (-)) 0.00032. The Raw reads turned out to be 95 (IRAK4 selection pulldown (+)) and 43 (IRAK4 selection pulldown (-)).

Under “IRAK4 selection pulldown (-)”, SLRWKRRIWS had a Library fraction of 9e-5 and a Raw reads of 12.

Where the note is “IRAK4 selection pulldown (+)”, AMRWRNRCYK came in with a Library fraction of 0.0001 and a Raw reads of 14.

For the sequence AMLWKRRLWR, where the note is “IRAK4 selection pulldown (+)”, the Library fraction was found to be 0.0005 and the Raw reads was found to be 57. In addition, where the note is “IRAK4 selection pulldown (-)”, the Library fraction is 0.00051 and the Raw reads was found to be 68.

For TQRYRWRNYK, for the setting “IRAK4 selection pulldown (+)”, the Library fraction is 0.0001 and the Raw reads came to 9.

For RLLWKRRNYQ, under “IRAK4 selection pulldown (+)”, the Library fraction is 0.0002 and the Raw reads is reported as 25. Under “IRAK4 selection pulldown (-)”, the Library fraction was 0.00025 and the Raw reads was 33.

Turning to SILWKKRVWK, for the setting “IRAK4 selection pulldown (+)”, the Library fraction was 0.016 and the Raw reads was 1700. Where the note is “IRAK4 selection pulldown (-)”, this sequence gave a Library fraction of 0.009 and a Raw reads of 1218.

On to SMKRPFITWHWT, for which, for the setting “IRAK4 selection pulldown (-)”, the Library fraction was 9e-5 and the Raw reads was 12.

In the case of SVRWKRRDYR, for the setting “IRAK4 selection pulldown (+)”, the Library fraction is on record as 0.0046 and the Raw reads was 492. For the same sequence, under “IRAK4 selection pulldown (-)”, the Library fraction is reported as 0.007 and the Raw reads came to 903.

Regarding SLLWHRRIYC, for the setting “IRAK4 selection pulldown (+)”, the Library fraction is given as 0.0002 and the Raw reads is listed as 19.

Under “IRAK4 selection pulldown (+)”, SMLWKRRICI gave a Library fraction of 0.0002 and a Raw reads of 17.

In the case of TQRYLSKNYK, under “IRAK4 selection pulldown (+)”, the Library fraction turned out to be 0.0001 and the Raw reads worked out at 12. In addition, where the note is “IRAK4 selection pulldown (-)”, the Library fraction is reported as 0.00025 and the Raw reads amounted to 33.

Take RLCWKRRNWT: where the note is “IRAK4 selection pulldown (+)”, the Library fraction was 0.0004 and the Raw reads turned out to be 47. For the setting “IRAK4 selection pulldown (-)”, this sequence came in with a Library fraction of 0.00044 and a Raw reads of 59.

Take SLLWKQRVWK: where the note is “IRAK4 selection pulldown (+)”, the Library fraction is reported as 0.005 and the Raw reads is 525. Also, for the setting “IRAK4 selection pulldown (-)”, the Library fraction amounted to 0.00324 and the Raw reads came out at 433.

Turning to TLLWKRRIYK, the Library fraction (IRAK4 selection pulldown (+)) worked out at 0.0019 and the Library fraction (IRAK4 selection pulldown (-)) stood at 0.00132. Further, the Raw reads was determined as 207 (IRAK4 selection pulldown (+)) and 176 (IRAK4 selection pulldown (-)).

Where the note is “IRAK4 selection pulldown (+)”, GPLLWNTRIYC gave a Library fraction of 0.0001 and a Raw reads of 14.

As for SVLWKRRIWK, the Library fraction reads like this: (IRAK4 selection pulldown (+)) 0.033; (IRAK4 selection pulldown (-)) 0.020. In addition, the Raw reads is, setting by setting: (IRAK4 selection pulldown (+)) 3569; (IRAK4 selection pulldown (-)) 2704.

Turning to TMRWKRRNWA, where the note is “IRAK4 selection pulldown (-)”, the Library fraction turned out to be 0.00026 and the Raw reads came to 35.

Under “IRAK4 selection pulldown (+)”, GPVIYNRRIYC returned a Library fraction of 0.0001 and a Raw reads of 11. Further, where the note is “IRAK4 selection pulldown (-)”, the Library fraction was 0.00021 and the Raw reads is 28.

For the setting “IRAK4 selection pulldown (-)”, SMKRQFITWRWT gave a Library fraction of 0.00015 and a Raw reads of 20.

For the setting “IRAK4 selection pulldown (+)”, SRLWRRRIFQ registered a Library fraction of 0.0001 and a Raw reads of 10. Where the note is “IRAK4 selection pulldown (-)”, this sequence showed a Library fraction of 9e-5 and a Raw reads of 12.

With SLLWKRRVYT, for the setting “IRAK4 selection pulldown (+)”, the Library fraction is 0.0002 and the Raw reads is 17. Under “IRAK4 selection pulldown (-)”, this sequence displayed a Library fraction of 0.0001 and a Raw reads of 14.

For RLFWKRRRYA, where the note is “IRAK4 selection pulldown (+)”, the Library fraction was 0.0004 and the Raw reads was 42. Under “IRAK4 selection pulldown (-)”, the Library fraction is 0.00016 and the Raw reads is given as 21.

On to TQRVRNRCYK, for which the Library fraction (IRAK4 selection pulldown (+)) is reported as 0.013 and the Library fraction (IRAK4 selection pulldown (-)) worked out at 0.00437. This sequence came in with a Raw reads (IRAK4 selection pulldown (+)) of 1424 and a Raw reads (IRAK4 selection pulldown (-)) of 584.

As for SLLWRKRIYR, the Library fraction is 0.003 (IRAK4 selection pulldown (+)) and 0.00109 (IRAK4 selection pulldown (-)). Further, the Raw reads is 312 (IRAK4 selection pulldown (+)) and 146 (IRAK4 selection pulldown (-)).

With TCLWKRRIYS, where the note is “IRAK4 selection pulldown (+)”, the Library fraction stood at 0.0001 and the Raw reads is listed as 10.

For the setting “IRAK4 selection pulldown (+)”, SLRWKNRNHK returned a Library fraction of 0.0006 and a Raw reads of 62. Under “IRAK4 selection pulldown (-)”, this sequence yielded a Library fraction of 0.00013 and a Raw reads of 17.

As for SQRYKQRCYK, the Library fraction (IRAK4 selection pulldown (+)) amounted to 0.0017 and the Library fraction (IRAK4 selection pulldown (-)) is reported as 0.0012. For the same sequence, the Raw reads stood at 182 (IRAK4 selection pulldown (+)) and 160 (IRAK4 selection pulldown (-)).

On to SILWKKHIYK, for which the Library fraction was found to be 0.0035 (IRAK4 selection pulldown (+)) and 0.00093 (IRAK4 selection pulldown (-)). Besides, the Raw reads reads like this: (IRAK4 selection pulldown (+)) 369; (IRAK4 selection pulldown (-)) 124.

Where the note is “IRAK4 selection pulldown (-)”, SMERKAITWLWT came in with a Library fraction of 0.00019 and a Raw reads of 25.

Turning to STYWKSRIYT, for the setting “IRAK4 selection pulldown (+)”, the Library fraction was 0.0002 and the Raw reads came out at 23.

Under “IRAK4 selection pulldown (+)”, STRWKNRIYR yielded a Library fraction of 0.004 and a Raw reads of 433. Where the note is “IRAK4 selection pulldown (-)”, the Library fraction was determined as 0.003 and the Raw reads is 390.

Turning to RLCYKRRNWQ, for the setting “IRAK4 selection pulldown (-)”, the Library fraction came to 0.00013 and the Raw reads was determined as 17.

Values taken from paper PMC10683472, “Deep Learning-Driven Library Design for the De Novo Discovery of Bioactive Thiopeptides” (ACS Central Science, 2023).
